# Source: US20150344570A1 (published 2015)
# T1: FcγRIIb extracellular domain with C-terminal His tag (human, UniProt P31994 43-217)
# T1 construct: extracellular domain; also called FcgRIIb; 2b
# T1 sequence (looked up): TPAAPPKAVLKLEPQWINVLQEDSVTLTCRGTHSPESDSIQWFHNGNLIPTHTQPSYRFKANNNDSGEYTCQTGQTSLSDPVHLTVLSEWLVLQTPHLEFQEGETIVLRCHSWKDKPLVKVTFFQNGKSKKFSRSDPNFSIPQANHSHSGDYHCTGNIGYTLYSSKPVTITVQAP
# B1: GpH7-A5/GpH7-B3 variant N325_01G/GpL16-k0 (antibody, human IgG1, kappa)
# heavy 1: not shown
# heavy 2: not shown
# light: DIVMTQSPLSLPVTPGEPASISCQASESLVHSNRNTYLHWYLQKPGQSPQLLIYKVSNRFSGVPDRFSGSGSGTDFTLKISRVEAEDVGVYYCSQNTHVPPTFGQGTKVEIERTVAAPSVFIFPPSDEQLKSGTASVVCLLNNFYPREAKVQWKVDNALQSGNSQESVTEQDSKDSTYSLSSTLTLSKADYEKHKVYACEVTHQGLSSPVTKSFNRGEC
# notes: also called He Ab N325_01G
# B2: GpH7-A5/GpH7-B3 variant N325_03V/GpL16-k0 (antibody, human IgG1, kappa)
# heavy 1: not shown
# heavy 2: not shown
# light: B1 light
# notes: also called He Ab N325_03V
# B3: GpH7-A5/GpH7-B3 variant N325_04F/GpL16-k0 (antibody, human IgG1, kappa)
# heavy 1: not shown
# heavy 2: not shown
# light: B1 light
# notes: also called He Ab N325_04F
# B4: GpH7-A5/GpH7-B3 variant N325_06M/GpL16-k0 (antibody, human IgG1, kappa)
# heavy 1: not shown
# heavy 2: not shown
# light: B1 light
# notes: also called He Ab N325_06M
# B5: GpH7-A5/GpH7-B3 variant N325_07I/GpL16-k0 (antibody, human IgG1, kappa)
# heavy 1: not shown
# heavy 2: not shown
# light: B1 light
# notes: also called He Ab N325_07I
# B6: GpH7-A5/GpH7-B3 variant N325_08L/GpL16-k0 (antibody, human IgG1, kappa)
# heavy 1: not shown
# heavy 2: not shown
# light: B1 light
# notes: also called He Ab N325_08L
# B7: GpH7-A5/GpH7-B3 variant N325_09D/GpL16-k0 (antibody, human IgG1, kappa)
# heavy 1: not shown
# heavy 2: not shown
# light: B1 light
# notes: also called He Ab N325_09D
# B8: GpH7-A5/GpH7-B3 variant N325_13S/GpL16-k0 (antibody, human IgG1, kappa)
# heavy 1: not shown
# heavy 2: not shown
# light: B1 light
# notes: also called He Ab N325_13S
# B9: GpH7-A5/GpH7-B3 variant N325_20W/GpL16-k0 (antibody, human IgG1, kappa)
# heavy 1: not shown
# heavy 2: not shown
# light: B1 light
# notes: also called He Ab N325_20W
# B10: GpH7-A5/GpH7-B3 variant P238_03V/GpL16-k0 (antibody, human IgG1, kappa)
# heavy 1: not shown
# heavy 2: not shown
# light: B1 light
# notes: also called He Ab P238_03V
# B11: GpH7-A5/GpH7-B3 variant P238_04F/GpL16-k0 (antibody, human IgG1, kappa)
# heavy 1: not shown
# heavy 2: not shown
# light: B1 light
# notes: also called He Ab P238_04F
# B12: GpH7-A5/GpH7-B3 variant P238_06M/GpL16-k0 (antibody, human IgG1, kappa)
# heavy 1: not shown
# heavy 2: not shown
# light: B1 light
# notes: also called He Ab P238_06M
# B13: GpH7-A5/GpH7-B3 variant P238_09D/GpL16-k0 (antibody, human IgG1, kappa)
# heavy 1: not shown
# heavy 2: not shown
# light: B1 light
# notes: also called He Ab P238_09D
# B14: GpH7-A5/GpH7-B3 variant P238_10E/GpL16-k0 (antibody, human IgG1, kappa)
# heavy 1: not shown
# heavy 2: not shown
# light: B1 light
# notes: also called He Ab P238_10E
# B15: GpH7-A5/GpH7-B3 variant P238_15Y/GpL16-k0 (antibody, human IgG1, kappa)
# heavy 1: not shown
# heavy 2: not shown
# light: B1 light
# notes: also called He Ab P238_15Y
# B16: GpH7-A5/GpH7-B3 variant P238_16H/GpL16-k0 (antibody, human IgG1, kappa)
# heavy 1: not shown
# heavy 2: not shown
# light: B1 light
# notes: also called He Ab P238_16H
# B17: GpH7-A5/GpH7-B3 variant P238_19Q/GpL16-k0 (antibody, human IgG1, kappa)
# heavy 1: not shown
# heavy 2: not shown
# light: B1 light
# notes: also called He Ab P238_19Q
# B18: GpH7-A5/GpH7-B3 variant P238_20W/GpL16-k0 (antibody, human IgG1, kappa)
# heavy 1: not shown
# heavy 2: not shown
# light: B1 light
# notes: also called He Ab P238_20W
# B19: GpH7-A5/GpH7-B3 variant P271_09D/GpL16-k0 (antibody, human IgG1, kappa)
# heavy 1: not shown
# heavy 2: not shown
# light: B1 light
# notes: also called He Ab P271_09D
# B20: GpH7-A5/GpH7-B3 variant P271_10E/GpL16-k0 (antibody, human IgG1, kappa)
# heavy 1: not shown
# heavy 2: not shown
# light: B1 light
# notes: also called He Ab P271_10E
# B21: GpH7-A5/GpH7-B3 variant P331_03V/GpL16-k0 (antibody, human IgG1, kappa)
# heavy 1: not shown
# heavy 2: not shown
# light: B1 light
# notes: also called He Ab P331_03V
# B22: GpH7-A5/GpH7-B3 variant P331_06M/GpL16-k0 (antibody, human IgG1, kappa)
# heavy 1: not shown
# heavy 2: not shown
# light: B1 light
# notes: also called He Ab P331_06M
# B23: GpH7-A5/GpH7-B3 variant P331_07I/GpL16-k0 (antibody, human IgG1, kappa)
# heavy 1: not shown
# heavy 2: not shown
# light: B1 light
# notes: also called He Ab P331_07I
# B24: GpH7-A5/GpH7-B3 variant P331_10E/GpL16-k0 (antibody, human IgG1, kappa)
# heavy 1: not shown
# heavy 2: not shown
# light: B1 light
# notes: also called He Ab P331_10E
# B25: GpH7-A5/GpH7-B3 variant P331_15Y/GpL16-k0 (antibody, human IgG1, kappa)
# heavy 1: not shown
# heavy 2: not shown
# light: B1 light
# notes: also called He Ab P331_15Y
# B26: GpH7-A5/GpH7-B3 variant P331_16H/GpL16-k0 (antibody, human IgG1, kappa)
# heavy 1: not shown
# heavy 2: not shown
# light: B1 light
# notes: also called He Ab P331_16H
# B27: GpH7-A5/GpH7-B3 variant P331_20W/GpL16-k0 (antibody, human IgG1, kappa)
# heavy 1: not shown
# heavy 2: not shown
# light: B1 light
# notes: also called He Ab P331_20W
# B28: GpH7-A5/GpH7-B3 variant S239_03V/GpL16-k0 (antibody, human IgG1, kappa)
# heavy 1: not shown
# heavy 2: not shown
# light: B1 light
# notes: also called He Ab S239_03V
# B29: GpH7-A5/GpH7-B3 variant S239_05P/GpL16-k0 (antibody, human IgG1, kappa)
# heavy 1: not shown
# heavy 2: not shown
# light: B1 light
# notes: also called He Ab S239_05P
# B30: GpH7-A5/GpH7-B3 variant S239_06M/GpL16-k0 (antibody, human IgG1, kappa)
# heavy 1: not shown
# heavy 2: not shown
# light: B1 light
# notes: also called He Ab S239_06M
# Molecular target: T1, FcγRIIb extracellular domain with …
# Assay: SPR (Biacore), relative binding
row,He/Con_2b,Binder
1,101 % of HeCon Ab GpH7-A5/GpH7-B3/GpL16-k0,B1
2,111 % of HeCon Ab GpH7-A5/GpH7-B3/GpL16-k0,B2
3,143 % of HeCon Ab GpH7-A5/GpH7-B3/GpL16-k0,B3
4,217 % of HeCon Ab GpH7-A5/GpH7-B3/GpL16-k0,B4
5,171 % of HeCon Ab GpH7-A5/GpH7-B3/GpL16-k0,B5
6,197 % of HeCon Ab GpH7-A5/GpH7-B3/GpL16-k0,B6
7,124 % of HeCon Ab GpH7-A5/GpH7-B3/GpL16-k0,B7
8,177 % of HeCon Ab GpH7-A5/GpH7-B3/GpL16-k0,B8
9,169 % of HeCon Ab GpH7-A5/GpH7-B3/GpL16-k0,B9
10,120 % of HeCon Ab GpH7-A5/GpH7-B3/GpL16-k0,B10
11,312 % of HeCon Ab GpH7-A5/GpH7-B3/GpL16-k0,B11
12,174 % of HeCon Ab GpH7-A5/GpH7-B3/GpL16-k0,B12
13,221 % of HeCon Ab GpH7-A5/GpH7-B3/GpL16-k0,B13
14,232 % of HeCon Ab GpH7-A5/GpH7-B3/GpL16-k0,B14
15,218 % of HeCon Ab GpH7-A5/GpH7-B3/GpL16-k0,B15
16,115 % of HeCon Ab GpH7-A5/GpH7-B3/GpL16-k0,B16
17,110 % of HeCon Ab GpH7-A5/GpH7-B3/GpL16-k0,B17
18,123 % of HeCon Ab GpH7-A5/GpH7-B3/GpL16-k0,B18
19,120 % of HeCon Ab GpH7-A5/GpH7-B3/GpL16-k0,B19
20,109 % of HeCon Ab GpH7-A5/GpH7-B3/GpL16-k0,B20
21,119 % of HeCon Ab GpH7-A5/GpH7-B3/GpL16-k0,B21
22,102 % of HeCon Ab GpH7-A5/GpH7-B3/GpL16-k0,B22
23,114 % of HeCon Ab GpH7-A5/GpH7-B3/GpL16-k0,B23
24,116 % of HeCon Ab GpH7-A5/GpH7-B3/GpL16-k0,B24
25,114 % of HeCon Ab GpH7-A5/GpH7-B3/GpL16-k0,B25
26,116 % of HeCon Ab GpH7-A5/GpH7-B3/GpL16-k0,B26
27,111 % of HeCon Ab GpH7-A5/GpH7-B3/GpL16-k0,B27
28,108 % of HeCon Ab GpH7-A5/GpH7-B3/GpL16-k0,B28
29,102 % of HeCon Ab GpH7-A5/GpH7-B3/GpL16-k0,B29
30,101 % of HeCon Ab GpH7-A5/GpH7-B3/GpL16-k0,B30
